# Experimental data published in patent US20260250320A1, “LIPIDATED PEPTIDE INHIBITORS OF INTERLEUKIN-23 RECEPTOR” (Janssen Pharmaceutica NV, priority 2023, published 2026).
# *1 amine or outer side, *2 acyl side, *3 side chain or, on linkers, in order; H or OH if unused. Bridges are numbered along the chain shown (N, C = ends). Primed or numbered codes have the meaning given here. Side-chain parts run from the residue outwards. [ ]: non-standard residue; d: D form. TMAPF = 5-(4-(2-amino-2-carboxyethyl)phenoxy)-N,N,N-trimethylpentan-1-aminium, C[N+](C)(C)CCCCCOc1ccc(C[C@H](N[*:1])C(=O)[*:2])cc1; PEG2′ = PEG2 spacer unit (not further defined); Trp(7-Me) = Cc1cccc2c(C[C@H](N)C(=O)O)c[nH]c12; γGlu = O=C(O)[C@H](CCC(=O)[*:2])N[*:1]; 2Nal = N[C@@H](Cc1ccc2ccccc2c1)C(=O)O; AEF = NCCOc1ccc(C[C@H](N)C(=O)O)cc1; 3Pal = N[C@@H](Cc1cccnc1)C(=O)O; NMecPEG3a = not defined here; Pen = CC(C)(S)[C@H](N)C(=O)O; PEG12′ = not defined here; PEG2″ = PEG2 spacer unit; Thp = NC1(C(=O)O)CCOCC1; Sar = CNCC(=O)O
# T1: interleukin-23 receptor (IL-23R) (UniProt Q5VWK5 24-629, limits assumed)
# T1 sequence (looked up): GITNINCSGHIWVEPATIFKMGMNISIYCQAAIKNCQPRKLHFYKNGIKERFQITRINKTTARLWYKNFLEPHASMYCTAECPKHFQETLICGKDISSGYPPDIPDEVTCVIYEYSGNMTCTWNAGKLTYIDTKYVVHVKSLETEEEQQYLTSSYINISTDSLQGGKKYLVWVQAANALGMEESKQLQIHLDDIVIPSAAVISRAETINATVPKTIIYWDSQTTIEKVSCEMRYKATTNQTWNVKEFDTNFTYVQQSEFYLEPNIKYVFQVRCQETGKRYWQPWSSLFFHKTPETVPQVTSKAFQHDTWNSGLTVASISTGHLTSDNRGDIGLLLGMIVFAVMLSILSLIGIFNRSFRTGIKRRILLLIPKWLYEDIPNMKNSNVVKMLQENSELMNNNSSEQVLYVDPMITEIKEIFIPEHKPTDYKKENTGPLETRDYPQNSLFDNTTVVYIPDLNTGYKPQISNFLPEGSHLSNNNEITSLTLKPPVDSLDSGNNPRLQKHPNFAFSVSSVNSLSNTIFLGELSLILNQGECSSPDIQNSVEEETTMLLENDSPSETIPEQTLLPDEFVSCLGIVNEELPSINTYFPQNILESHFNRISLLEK
# B1: SEQ ID NO: 161 (peptide)
# peptide: XNTXXXXXXENXXK
# modifications: MeCO-Pen(3)-N-T-7MeW-K(Ac)-Pen(3)-AEF-2Nal-THP-E-N-3Pya-Sar-K(PEG12gEC18OH)-CONH2
# B2: SEQ ID NO: 76 (peptide)
# peptide: Ac-[dR][Pen]K([PEG2″-PEG2″-γGlu-C18OH])T[Trp(7-Me)]K(NMecPEG3a)[Pen][AEF][2Nal][Thp]EN[3Pal][Sar]-NH2
# modifications: disulfide 2-7 (inferred); reading uncertain; also: printed as MeCO-r-Pen(3)-K(PEG2PEG2gEC18OH)-T-7MeW-K(NMecPEG3a)-Pen(3)-AEF-2Nal-THP-E-N-3Pya-Sar-CONH2
# B3: SEQ ID NO: 104 (peptide)
# peptide: Ac-[dK]([PEG12′-γGlu-C20OH])[Pen]NT[Trp(7-Me)]K(Ac)[Pen][AEF][2Nal][Thp]K(Ac)N[3Pal]X-NH2
# modifications: disulfide 2-7 (inferred); not fully specified (residue 14); printed as MeCO-k(PEG12gEC20OH)-Pen(3)-N-T-7MeW-K(Ac)-Pen(3)-AEF-2Nal-THP-K(Ac)-N-3Pya-Ser-CONH2
# B4: SEQ ID NO: 101 (peptide)
# peptide: XNTXXXXXXXNXXK
# modifications: MeCO-Pen(3)-N-T-7MeW-K(Ac)-Pen(3)-AEF-2Nal-THP-K(Ac)-N-3Pya-Sar-K(PEG12gEC20OH)-CONH2
# B5: SEQ ID NO: 84 (peptide)
# peptide: {HOC18-γGlu-PEG2′-PEG2′}-[dR][Pen]NT[Trp(7-Me)]K(NMecPEG3a)[Pen][AEF][2Nal][Thp]EN[3Pal][Sar]-NH2
# modifications: disulfide 2-7 (inferred); not fully specified; printed as HOC18gEPEG2PEG2CO-r-Pen(3)-N-T-7MeW-K(NMecPEG3a)-Pen(3)-AEF-2Nal-THP-E-N-3Pya-Sar-CONH2; reading uncertain
# B6: SEQ ID NO: 103 (peptide)
# peptide: XNTXXXXXXENXXK
# modifications: MeCO-Pen(3)-N-T-7MeW-K(Ac)-Pen(3)-AEF-2Nal-THP-E-N-3Pya-Sar-K(PEG12gEC20OH)-CONH2
# B7: SEQ ID NO: 3 (peptide)
# peptide: XNTXXXXXXENXXK
# modifications: MeCO-Pen(3)-N-T-7MeW-K(Ac)-Pen(3)-AEF-2Nal-THP-E-N-3Pya-Sar-K(PEG2NMePEG2NMegENMeC18Tetrazole)-CONH2
# B8: SEQ ID NO: 149 (peptide)
# peptide: XNTXXXXXXENXXK
# modifications: MeCO-Pen(3)-N-T-7MeW-K(Ac)-Pen(3)-AEF-2Nal-THP-E-N-3Pya-Sar-K(PEG2PEG2gEC18OH)-CON(Me)2
# Molecular target: T1, interleukin-23 receptor (IL-23R)
# Assay: cell-based or functional assay
row,"IC50, IL23R reporter assay",Binder
1,< 50 nM,B1
2,< 50 nM,{HOC18-γGlu-PEG2″-PEG2″}-[dR][Pen]NT[Trp(7-Me)]K(Ac)[Pen][TMAPF][2Nal][Thp]EN[3Pal][Sar]-NH2 (disulfide 2-7 (inferred); not fully specified) [SEQ ID NO: 83]
3,< 50 nM,XNTXXXXXXKNXX (MeCO-Pen(3)-N-T-7MeW-K(Ac)-Pen(3)-AEF-2Nal-THP-K(PEG12gEC18OH)-N-3Pya-Sar-CONH2) [SEQ ID NO: 100]
4,< 50 nM,B2
5,< 50 nM,B3
6,< 50 nM,Ac-[dR][Pen]K([PEG2″-PEG2″-γGlu-C18OH])T[Trp(7-Me)]K(Ac)[Pen][TMAPF][2Nal][Thp]EN[3Pal][Sar]-NH2 (disulfide 2-7 (inferred)) [SEQ ID NO: 75]
7,< 50 nM,B4
8,< 50 nM,B5
9,< 50 nM,B6
10,< 50 nM,B7
11,≥ 500 nM,B8
12,< 50 nM,Ac-[dR][Pen]NT[Trp(7-Me)]K(Ac)[Pen][AEF][2Nal][Thp]EN[3Pal][Sar]K([PEG12′-γGlu-C18OH])-NH2 (disulfide 2-7 (inferred)) [SEQ ID NO: 133]
13,< 50 nM,Ac-[dK]([PEG12′-γGlu-C18OH])[Pen]NT[Trp(7-Me)]K(Ac)[Pen][AEF][2Nal][Thp]EN[3Pal][Sar]-NH2 (disulfide 2-7 (inferred)) [SEQ ID NO: 117]

# Molecular target: T1, interleukin-23 receptor (IL-23R)
# Assay: cell-based or functional assay
# Remark: another data set of the same source
row,PBMC pSTAT3 IC50,Binder
1,< 0.5 nM,B1
2,< 0.5 nM,{HOC18-γGlu-PEG2″-PEG2″}-[dR][Pen]NT[Trp(7-Me)]K(Ac)[Pen][TMAPF][2Nal][Thp]EN[3Pal][Sar]-NH2 (disulfide 2-7 (inferred); not fully specified) [SEQ ID NO: 83]
3,< 0.5 nM,XNTXXXXXXKNXX (MeCO-Pen(3)-N-T-7MeW-K(Ac)-Pen(3)-AEF-2Nal-THP-K(PEG12gEC18OH)-N-3Pya-Sar-CONH2) [SEQ ID NO: 100]
4,< 0.5 nM,B2
5,< 0.5 nM,B3
6,< 0.5 nM,Ac-[dR][Pen]K([PEG2″-PEG2″-γGlu-C18OH])T[Trp(7-Me)]K(Ac)[Pen][TMAPF][2Nal][Thp]EN[3Pal][Sar]-NH2 (disulfide 2-7 (inferred)) [SEQ ID NO: 75]
7,< 0.5 nM,B4
8,< 0.5 nM,B5
9,< 0.5 nM,B6
10,< 0.5 nM,B7
11,≥ 5 nM,B8
12,< 0.5 nM,Ac-[dR][Pen]NT[Trp(7-Me)]K(Ac)[Pen][AEF][2Nal][Thp]EN[3Pal][Sar]K([PEG12′-γGlu-C18OH])-NH2 (disulfide 2-7 (inferred)) [SEQ ID NO: 133]
13,< 0.5 nM,Ac-[dK]([PEG12′-γGlu-C18OH])[Pen]NT[Trp(7-Me)]K(Ac)[Pen][AEF][2Nal][Thp]EN[3Pal][Sar]-NH2 (disulfide 2-7 (inferred)) [SEQ ID NO: 117]
